# According to doi:10.1101/2023.03.26.534243:
# Columns and labels:
# Assay in all cases: BLI
# [1] = biological target: FcγRIIb/c (UniProt P31994)
# [2] = biological target: FcγRIIa_(H167) (UniProt P12318)
# [3] = biological target: FcγRIa (UniProt P12314)
# [4] = biological target: FcγRIIIa_(F176) (UniProt P08637)
# [5] = biological target: FcγRIIIa_(V176) (UniProt P08637)
# UniProt P31994, sequence (P31994 43-217): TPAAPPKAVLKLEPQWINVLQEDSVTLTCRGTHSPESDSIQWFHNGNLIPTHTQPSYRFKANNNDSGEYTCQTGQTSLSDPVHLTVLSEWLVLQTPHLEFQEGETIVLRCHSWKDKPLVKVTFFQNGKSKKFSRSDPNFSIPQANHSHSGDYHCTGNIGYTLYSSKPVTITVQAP
# UniProt P12318, sequence (P12318 34-217): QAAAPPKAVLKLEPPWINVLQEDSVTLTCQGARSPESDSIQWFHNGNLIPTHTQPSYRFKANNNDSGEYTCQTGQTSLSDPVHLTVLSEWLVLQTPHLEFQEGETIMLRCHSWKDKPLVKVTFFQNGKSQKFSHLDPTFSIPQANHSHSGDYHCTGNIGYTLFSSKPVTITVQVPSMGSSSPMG
# UniProt P12314, sequence (P12314 16-292): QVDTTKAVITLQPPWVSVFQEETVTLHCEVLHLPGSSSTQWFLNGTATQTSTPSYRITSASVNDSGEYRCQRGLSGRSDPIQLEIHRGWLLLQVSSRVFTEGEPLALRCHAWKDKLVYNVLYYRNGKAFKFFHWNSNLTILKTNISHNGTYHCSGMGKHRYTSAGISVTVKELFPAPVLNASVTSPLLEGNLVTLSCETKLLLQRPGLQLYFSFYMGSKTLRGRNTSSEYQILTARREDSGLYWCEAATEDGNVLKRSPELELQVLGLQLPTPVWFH
substance,measurement,setting,value
Pertuzumab IgG2 VH1 (antibody),kon,[1],176000 M⁻¹ s⁻¹
Pertuzumab IgG2 VH3 (antibody),kon,[1],308000 M⁻¹ s⁻¹
Pertuzumab IgG2 VH4 (antibody),kon,[2],360000 M⁻¹ s⁻¹
same,koff,[1],0.00934 s⁻¹
Pertuzumab IgG3 VH1 (antibody),koff,[3],0.000553 s⁻¹
same,kon,[3],208000 M⁻¹ s⁻¹
same,Kd,[4],92.9 nM
same,koff,[4],0.0328 s⁻¹
same,kon,[4],160000 M⁻¹ s⁻¹
Pertuzumab IgG3 VH3 (antibody),Kd,[2],5.75 nM
same,Kd,[5],181 nM
same,koff,[5],0.0178 s⁻¹
same,kon,[5],13500 M⁻¹ s⁻¹
Pertuzumab IgG3 VH4 (antibody),kon,[1],72900 M⁻¹ s⁻¹
same,Kd,[5],88.7 nM
Pertuzumab IgG3 VH5 (antibody),koff,[2],0.00279 s⁻¹
same,Kd,[1],24.8 nM
Pertuzumab IgG4 VH1 (antibody),Kd,[3],3.62 nM
Pertuzumab IgG4 VH2 (antibody),Kd,[3],75.7 nM
Pertuzumab IgG4 VH3 (antibody),Kd,[3],127 nM
Pertuzumab IgG4 VH4 (antibody),Kd,[3],191 nM
Pertuzumab IgG4 VH5 (antibody),Kd,[3],151 nM
Pertuzumab IgG4 VH6 (antibody),Kd,[3],7.15 nM
Pertuzumab IgG4 VH7 (antibody),Kd,[3],20.7 nM
